In patent US20160243230A1 one finds EC50 data, which are given here for one molecule.

This assay concerns the target Vκ4Len(1-22) peptide, P06312. The assay is described as follows: EuLISA, peptide dried on the plate, 11-1F4 titrated from 100 nM.

B1: murine 11-1F4 monoclonal antibody (antibody)
chain 1: QVQLKESGPGLVAPSQSLSITCTVSGFSLSSYGVSWVRQPPGKGLEWLGVIWGDGSTNYHPNLMSRLSISKDISKSQVLFKLNSLQTDDTATYYCVTLDYWGQGTSVTVSS
chain 2: DVVMTQTPLSLPVSLGDQASISCRSSQSLVHRNGNTYLHWYLQKPGQSPKLLIYKVSNRFSGVPDRFSGSGSGTDFTLKISRVEAEDLGLYFCFQTTYVPNTFGGGTKLEIK
B1 displayed an EC50 of 0.5 nM. This counts as sub-nanomolar.
